From patent US20210054062A1 (NEURACLE SCIENCE, published 2021)

Experiments:
[1] = target: T1, FAM19A5-rabbit Fc; experiment: ELISA: FAM19A5-rFc captured on coated anti-rabbit Fc antibody, antibody at 2.8 to 2055 pM, anti-human kappa light chain-HRP, OD450. The table prints R2 of the fit as 1.000.
T1 construct: also called FAM19A5-rFc
Description: (§1) For the ELISA assay, the following protocol was used. Anti-rabbit Fc antibody (diluted to a concentration of 1 μg/mL in 50 mM carbonate buffer, pH 9.6) was used to coat the 96-well plates (100 μL/well) overnight at 4° C. Next, the plates were washed with the washing buffer (PBST: 0.05% Tween-20/PBS) for a total of five washes. The plates were then blocked for 1 hour at 37° C. with the blocking buffer (1% BSA/PBST) (150 μL/well) and washed again with the washing buffer. Then, 50 ng/mL of FAM19A5-rabbit Fc (also called FAM19A5-rFc) antigen diluted in blocking buffer was added to each of the wells. The plates were incubated for an additional hour at 37° C. After the incubation, the plates were washed again for a total of five washes with the washing buffer. The diluted anti-FAM19A5 antibodies in blocking buffer to different concentrations (2055 pM, 685 pM, 228.3 pM, 76.1 pM, 25.4 pM, 8.5 pM, 2.8 pM, 0 pM) were added to each of the wells, and the plates were incubated for 2 hours at 37° C. After the incubation, the plates were washed (total of five washes in the wash buffer) and then, diluted anti-human kappa light chain-HRP (1:10000 in blocking buffer) was added to the well (100 μL/well). […] This reaction was stopped using 100 μL of sulfuric acid (2N H₂SO₄), and the extent of color change was detected via absorption at 450 nm using a 96 well microplate reader (Molecular Device).

[2] = target: T1, FAM19A5-rabbit Fc; experiment: ELISA: FAM19A5-rFc captured on coated anti-rabbit Fc antibody, antibody at 2.8 to 2055 pM, anti-human kappa light chain-HRP, OD450. The table prints R2 of the fit as 0.999.
Description: as §1

T1 sequence (Q7Z5A7 44-132): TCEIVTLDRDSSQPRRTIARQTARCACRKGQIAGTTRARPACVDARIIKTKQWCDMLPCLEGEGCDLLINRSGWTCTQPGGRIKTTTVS

Row | EC50 [1] [pM] | EC50 [2] [pM] | Binder
1 | 130 |  | Reference anti-FAM19A5 antibody ("1-65") (antibody, V domains shown, The ELISA detected it with anti-human kappa light chain-HRP; also called 1-65 antibody; clone 1-65) VH: AVTLDESGGGLQTPGGALSLVCKASGFTFSSYQMGWVRQAPGKGLEWVGVINKSGSDTSYGSAVKGRATISRDNGQSTVRLQLNNLRAEDTGTYFCAKGSASYITAATIDAWGHGTEVIVSS VL: ALTQPSSVSANPGETVKITCSGGGSSGYGYGWYQQKSPSSAPLTVIYWNDKRPSDIPSRFSGSKSGSTHTLTITGVQAEDEAVYFCGNDDYSSDSGYVGVFGAGTTLTVL
2 | 380 |  | Anti-FAM19A5 antibody ("SS01-13-s5") (antibody, V domains shown, The ELISA detected it with anti-human kappa light chain-HRP; also called deimmunized clone 1-65; deimmunized 1-65 antibody) VH: AVTLDESGGGLQTPGGALRLSCKASGFTFSSYQMGWVRQAPGKGLEWVSAINKSGSDTSYGSAVKGRATISRDNGQSTLYLQMNSLRAEDTAVYFCAKGSASYITAATIDAWGHGTEVIVSS VL: ALTQPSSVSANPGETARITCSGGASSGYGYGWYQQKPSSAPLTVIYKDSERPSDIPSRFSGSSSGSTHTLTISGVQAEDEAVYFCGNDDYSSDSGYVGVFGAGTTLTVL
3 |  | 210 | Anti-FAM19A5 antibody ("S5-SG") (antibody, V domains shown, The ELISA detected it with anti-human kappa light chain-HRP; also called deimmunized clone S5-SG; S5-2.GKNG antibody) VH: AVTLDESGGGLQTPGGALRLSCKASGFTFSSYQMGWVRQAPGKGLEWVSAINKGGSDTSYGSAVKGRATISRDNGQSTLYLQMNSLRAEDTAVYFCAKGSASYITAATIDAWGHGTEVIVSS VL: ALTQPSSVSANPGETARITCSGGASSGYGYGWYQQKPSSAPLTVIYKDSERPSDIPSRFSGSSSGSTHTLTISGVQAEDEAVYFCGNDDYSSDSGYVGVFGAGTTLTVL
